Results from US12390517B2, “Compositions, methods and uses for eliciting an immune response” (Griffith University, priority 2018, dated 2025).

T1: recombinant MsrA/B (methionine sulfoxide reductase) from N. gonorrhoeae 1291, amino acids 30-522 of SEQ ID NO: 1 (recombinant with 6-His tag SEQ ID NO: 15); tag (Neisseria gonorrhoeae, UniProt P14930, E520K)
T1 construct: 6-His tag (N); thrombin cleavage site (N); made in house; host or cells: E. coli BL21 Star (DE3)pLysS
T1 sequence (P14930 with tags, fused parts or gaps E520K): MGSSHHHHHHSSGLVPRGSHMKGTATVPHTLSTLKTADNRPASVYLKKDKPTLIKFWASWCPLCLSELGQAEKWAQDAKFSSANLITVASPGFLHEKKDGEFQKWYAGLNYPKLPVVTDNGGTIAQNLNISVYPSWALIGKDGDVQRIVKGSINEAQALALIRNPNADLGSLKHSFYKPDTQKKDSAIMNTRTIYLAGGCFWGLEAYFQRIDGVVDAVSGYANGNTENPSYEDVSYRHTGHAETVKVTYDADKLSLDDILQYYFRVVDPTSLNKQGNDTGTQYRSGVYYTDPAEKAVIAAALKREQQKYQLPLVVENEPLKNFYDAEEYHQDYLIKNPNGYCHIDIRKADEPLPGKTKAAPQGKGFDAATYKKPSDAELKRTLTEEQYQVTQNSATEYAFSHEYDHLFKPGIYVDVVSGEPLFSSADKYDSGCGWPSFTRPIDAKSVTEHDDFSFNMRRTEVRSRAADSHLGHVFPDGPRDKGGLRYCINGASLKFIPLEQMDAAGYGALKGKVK


Legend:
[1] = target: T1, recombinant MsrA/B (methionine sulfoxide reductase) from N. gonorrhoeae 1291, amino acids 30-522 of SEQ ID NO: 1 (recombinant with 6-His tag SEQ ID NO: 15); tag; assay: Surface plasmon resonance (SPR) affinity assay of Met(O) binding to immobilized MsrA/B; set-up: species or system Neisseria gonorrhoeae 1291; conditions: read-out: KD (equilibrium dissociation constant), Biacore T200, MsrA/B immobilized on CM5 chip, Met(O) 0.16 to 100 nM, single cycle kinetics, absence of serum/antibody
Procedure: The msr gene was amplified from N. gonorrhoeae 1291 using primers msrexp_NdeIF (5′-[…]-3′; SEQ ID NO:20) and msrexp_XhoIR (5′-[…]-3′; SEQ ID NO:21) and the resulting PCR product was cloned into pET15b to obtain a Msr expression construct pET15bmsr. The construct pET15bmsr was transformed into E. coli BL21 Star (DE3)pLysS host strain (Novagen) and MsrA/B was overexpressed and purified. Briefly, expression was induced by 0.1 mM IPTG at an optical density at 600 nm (OD600) of 0.4 for 24 hr at room temperature. Cell cultures were harvested and the cell pellet was re-suspended in buffer A. Cells were lysed by sonication, centrifuged and the supernatant was applied to a column packed with TALON™ metal affinity resins (Clontech laboratories, Inc). […] Fractions were collected and analyzed by 4-12% NuPAGE® Novex Bis-Tris Gels (Invitrogen) stained with Coomassie Blue, and by Western blot of anti-His polyclonal antisera. […]
SPR assays were performed using a Biacore T200 for affinity analysis and a Pall Pioneer FE for competition assays. […] Data was analyzed using the Biacore T200 evaluation software package. […] Data was collected using the Pioneer Software package and analyzed using Qdat analysis software. The percentage blocking was calculated based on the relative RMax of the Met(O) injection with and without serum, and the serum with and without Met(O). […]

[2] = system: whole cell N. gonorrhoeae 1291; assay: Whole cell ELISA of mouse antisera against N. gonorrhoeae 1291 strains; format: binding; conditions: antisera of 5 mice immunized with Freund's adjuvant; for Whole cell ELISA titre to the mutant strain: 1291 msr::kan mutant; for Whole cell ELISA average titre to 1291 Δmsr_C: complemented strain; for Whole cell ELISA average titre to 1291: wild-type 1291
Procedure: Groups of 10 female BALB/c mice (6 weeks old) were immunized subcutaneously with 5 μg of recombinant MsrA/B with either Alhydrogel® (aluminium hydroxide, InvivoGen) or Freund's (FCA/FIA, Sigma-Aldrich) adjuvant on days 0, 21, and 28. Terminal bleeds were collected on day 42. For Freund's adjuvant, Freund's complete adjuvant (FCA) was used on day 0 and Freund's incomplete adjuvant (FIA) was used in the boosts of day 21 and 28. Pre-bleed of each mouse was collected 4 days before immunization. This study was carried out in accordance with the recommendations of the Australian Code for the Care and Use of Animals for Scientific Purposes, the Griffith University Animal Ethics Committee (AEC). The protocol was approved by the Griffith University AEC.
For whole cell ELISA, bacteria were grown on BHI or GC plates for 16 hr. Cells were harvested and resuspended in PBS at an OD600 of 0.2. Microtitre plate wells were filled with 50 μl of the bacterial suspension and dried at room temperature overnight in the laminar flow cabinet. The bacteria in the dried wells were then heat-killed for 1 hr in 56° C. For recombinant protein ELISA, wells of plates were coated with 100 ng of purified recombinant MsrA/B protein in 100 μl of coating buffer (0.5M carbonate/bicarbonate buffer, pH 9.6) for 1 hr at room temperature. All ELISAs were performed with mouse pre-immune or MsrA/B immunized sera, and secondary antibody as specified in the results (polyclonal anti-mouse Ig HRP (Dako) or IgG1, IgG2a, IgG2b, IgG3 or IgM HRP (Thermofisher Scientific)). The substrate TMB (3,3′, 5,5;-tetramethylbenzidine) solution (Thermofisher Scientific) was used as per manufacture's instruction. Equal amount of 1 N hydrochloric acid was added to stop the reaction. Absorbance was read in a TECAN Model Infinite 200 Pro plate reader at 450 nm.

Molecule | Kd [1] [nM] | Whole cell ELISA titre to the mutant strain [2] | Whole cell ELISA average titre to 1291 Δmsr_C [2] | Whole cell ELISA average titre to 1291 [2]
C[S+]([O-])CC[C@H](N)C(=O)O (stereo partly shown) [Met(O), methionine sulfoxide] | 15.4 ± 3.7 | – | – | –
MsrB: recombinant MsrB domain, his-tag removed (SEQ ID NO:31), given to mice with Freund's adjuvant (protein, Recombinant MsrB) GSHMKAATYKKPSDAELKRTLTEEQYQVTQNSATEYAFSHEYDHLFKPGIYVDVVSGEPLFSSADKYDSGCGWPSFTRPIDAKSVTEHDDFSFNMRRTEVRSRAADSHLGHVFPDGPRDKGGLRYCINGASLKFIPLEQMDAAGYGALKGKVK | – | 1,000 | 40,000 | 16,000
MsrA: recombinant MsrA domain, his-tag removed (SEQ ID NO:28), given to mice with Freund's adjuvant (protein, Recombinant MsrA) GSHMKHSFYKPDTQKKDSAIMNTRTIYLAGGCFWGLEAYFQRIDGVVDAVSGYANGNTENPSYEDVSYRHTGHAETVKVTYDADKLSLDDILQYYFRVVDPTSLNKQGNDTGTQYRSGVYYTDPAEKAVIAAALKREQQKYQLPLVVENEPLKNFYDAEEYHQDYLIKNPNGYCHIDIRKADEPLPG | – | 1,000 | 20,000 | 10,000
